According to the DeepSol protein solubility set:

Assay: soluble on expression in E. coli; label from the status in PepcDB or PDB records

Soluble on expression in E. coli, not soluble:
MDALVIRNPELLADALRGLSQSPKRMEPKWFYDAEGSALFERITELPEYYPTRTETAILTAGADRLAAHVPEGAELVELGSGASVKTRLLLDRLTGLSAYVPVDISASFLKETARALARDYPDLPIHPVVADFTKPLRLADEGHPRVGFFPGSTLGNLDPEGARALMRGVRDWPGIRGFIVGIDLIKDEDTLVRAYDDAAGVTAAFNLNLLHRMNREIGADFDPDRFAHRAIWNAEKARIEMHLESLEDQEVQIGPRRIRFRAGETIHTENSHKFSATSFAERAAEAGWRLADFLTDARRQFGVAVLEPA
MGSDKIHHHHHHMIGIEQYQKIQEYKELGLAQTKTAKALGITYSSVSKYWNMSEEDYVREAEQEKYHMDNYRQYILEQLKICPQIRDTNVYLKLMEAFPDLQVKRATFYRYMKALREQHGYQHTSKRKISPREVSPPGYEAQADFGQYKLKDMYGRIVRVYFFCMVLSYSRMKFVCFSPDPFTTKTGIKVHNYAFQCVWQV
MTDLSRSQFGFRKARSTVDVVNIVVKVAAQAIEGIMVTLDIRNVFNTARWDRIIKALIGFGELAYLVRIIRSYFSKRVLLCESSEGVFSPQVTGGVPKGSVLGQLLWNAMKTGYFAYHWLRGTNRRLRGRRGFARCLEHHHHHH
MEALADVGVLASWSPLHKQVEVIDYYPDGRPHHVRATVKILGLVDKEVLEYHWGPDWVCWDADQTFQQHGQHIEYTVKPEGVDRARVRFDITVEPAGPIPGFIVKRASEHVLDAAAKGLQKLIAGAGDQGNAKSLEHHHHHH
MSSGDQKVKEMFIEQGLHVDWLVRAHTVNSIEGLVYLSEQRHKWAEADQKVIFRILQDYKNSDGELLPEHNPAAPINRKRGTLKTELETFYDVPQVRTLTCELLDMVKEEPSIWDKIRCVDFGCHQRMRQAWCSISLKLGGWGAIQHVHMLKQLYRKKRDLYNVQYLRSGREFEYCEKLSFLKDVLEMAKNDPLDKNIQLDEHLKTATPIIDFDAELLAAPAEIQQILREISEKIDKVTTSQSPGFLAEYLATCCNEVVKHRETLATAGLGDDFN
MGSDKIHHHHHHMTEILLKELTKSDIDWMITTGNQQELAAGTILIQERGSTEFFHILLDGTFSVTLSQPENNPLTRAFAAIEGEEISGREIGRLSRGEIVGESPLIGTRPPATTITSVEKSLVISIPIRELAAKLQQDVGFAARFYRAIAIIISNRIENTIDQLGRRNLAQSQPLRDVLFILGELHDSDIDWMMASGTPQKIPANTILIHEQGTVDALYILLDGKMSLSISLDERNPLVRAFAAIEGNEISGREIAKLSKGEIIGETPFIDGSLPPTTVKAIEHSVVLSIPRQQLAAKLQQDIGFASRFYRVIASLLDQRLQPMVSQLGYGRRVYSRGESLHEGLEYDDELDINTLDRMAIAGKRFDWMLERLKVS
MGSDKIHHHHHHMKYPNETSGTADYTVIKGLVTSNGDTGHDSIALDTATQLTAEDVKHFRDYGFSIVGRYLTGTVGTDYKPKNLTSTEIKTILDGGMKFFPIYEDGGYVESYFTASQGQKDAQTAIKTALDLELPAGTVIYFAVDVDFQDGDIDGTVIPYIKAIQNILSQSIYKTGIYGTRNVCLHAERVGIGFSFVANMSYGWSGNLGFKMPDNWAFDQFVEYPIYGIDIDQTASSGLDKGISGVAQTTPEVQTGYLANQLLSVFPDYHNLFGTINWTVSAPEQHLSTPIADYYITLEDKWIATVVDDKTGTLTIQDAKMLNQTADVMKQFESAMSSYDIGDLSGAFNKLAPMIGNGAIKAGLAIRDGMVGFKIAIEGSFESSTSSSSVEGKYTLTLETYIHRDQVPKNAYDPVYQPVTEPNPVFAVDLGKVATTVVIGLLVSSMLPEVGGGAALVELFNVVKTIFAVA
MGSDKIHHHHHHMNIKEKIAVQLYSVRKEMERDLEGTLRKMHEIGFRYVQLDGMRGNDPSEVRRLLQKYELKVIGMHIKHDRFMNDLDGIIEEAYFFDCKTVFDKYIEEEDQTTAGYTATKAALINAAEKLHPLGFRIGLHNPEYDFNECIHGRRVMDYITDPVDGICIYAEPDTYWIRAAGHDETEFIKRYSGRAPIVHMKDFLSGFELEDMDNNLVEIGQGEVDFRAIIEWGEANGVEYYCIEQDKSKRAMFETLEASYQYLLQL

Soluble on expression in E. coli, soluble:
MEKLIILGAQWGDEGKGKIVDLLSEHFDITVRYQGGSNAGHTVVVNSQKFILHLLPTGILHEHVKGVIAQGMVVDLEVLHKEVKNLEEKGIYVKERLFISDRAHLVMPYHKLLDSLFEKKKGIGTTLRGIGPAYMFKYGRKGIRISDLKDEKRFYTLLEDNLDFVKNICEKVFCEKFDLDINQIYEEQLRYFEEFKENVVDLLRFFNTQKGSVLFEGAQGTLLDVDMGTYPYVTSSNASALGLSNGTGMPPKYFSDAFFLGVAKAYTTRVGEGPFPTELKGEEGEKLRELGGEYGSTTGRPRRCGWLDLVALKYAVQVNGLDGFVITKLDVLDTFDEVKVCVAYELDGEVIDYFPASYSELIRVKPVYKTLKGWKKSTKGAKDVSELPKEALDYVKFIEEYTGVPVVMLSTGPKRDEYIWLKEILRTRSGYS
MALEPIDYTTHSREIDAEYLKIVRGSDPDTTWLIISPNAKKEYEPESTGSSFHDFLQLFDETKVQYGLARVSPPGSDVEKIIIIGWCPDSAPLKTRASFAANFAAVANNLFKGYHVQVTARDEDDLDENELLMKISNAAGA
MFSIPPLPWGYDGLAAKGLSKQQVTLHYDKHHQGYVTKLNAAAQTNSALATKSIEEIIRTEKGPIFNLAAQIFNHTFYWESMCPNGGGEPTGKVADEINASFGSFAKFKEEFTNVAVGHFGSGWAWLVKDTNSGKLKVYQTHDAGCPLTEPNLKPLLTCDVWEHAYYVDYKNDRAAYVQTFWNVVNWKNVERQL
MSYSIVRVSKVKSGTNTTGIQKHVQRENNNYENEDIDHSKTYLNYDLVNANKQNFNNLIDEKIEQNYTGKRKIRTDAIKHIDGLITSDNDFFDNQTPEDTKQFFEYAKEFLEQEYGKDNLLYATVHMDEKTPHMHYGVVPITDDGRLSAKEVVGNKKALTAFQDRFNEHVKQRGYDLERGQSRQVTNAKHEQISQYKQKTEYHKQEYERESQKTDHIKQKNDKLMQEYQKSLNTLKKPINVPYEQETEKVGGLFSKEIQETGNVVISQKDFNEFQKQIKAAQDISEDYEYIKSGRALDDKDKEIREKDDLLNKAVERIENADDNFNQLYENAKPLKENIEIALKLLKILLKELERVLGRNTFAERVNKLTEDEPKLNGLAGNLDKKMNPELYSEQEQQQEQQKNQKRDRGMHLLEHHHHHH
MSLSEVDIAKADPAAASHPLLLNGDATVAQKNPGSVAENNLCSQYEEKVRPCIDLIDSLRALGVEQDLALPAIAVIGDQSSGKSSVLEALSGVALPRGSGIVTRCPLVLKLKKLVNEDKWRGKVSYQDYEIEISDASEVEKEINKAQNAIAGEGMGISHELITLEISSRDVPDLTLIDLPGITRVAVGNQPADIGYKIKTLIKKYIQRQETISLVVVPSNVDIATTEALSMAQEVDPEGDRTIGILTKPDLVDKGTEDKVVDVVRNLVFHLKKGYMIVKCRGQQEIQDQLSLSEALQREKIFFENHPYFRDLLEEGKATVPCLAEKLTSELITHICKSLPLLENQIKETHKRITEELQKYGVDIPEDENEKMFFLIDKINAFNQDITALMQGEETVGEEDIRLFTRLRHEFHKWSTIIENNFQEGHKILSRKIQKFENQYRGRELPGFVNYRTFETIVKQQIKALEEPAVDMLHTVTDMVRLAFTDVSIKNFEEFFNLHRTAKSKIEDIRAEQEREGEKLIRLHFQMEQIVYCQDQVYRGALQKVREKELEEEKKKKSWDFGAFQSSSATDSSMEEIFQHLMAYHQEASKRISSHIPLIIQFFMLQTYGQQLQKAMLQLLQDKDTYSWLLKERSDTSDKRKFLKERLARLTQARRRLAQFPGEGHHHHHH
MEKTITIYTDGAASGNPGKGGWGALLMYGSSRKEISGYDPATTNNRMELMAAIKGLEALKEPARVQLYSDSAYLVNAMNEGWLKRWVKNGWKTAAKKPVENIDLWQEILKLTTLHRVTFHKVKGHSDNPYNSRADELARLAIKENS
